Patent US20180071366A1
Numbered stars: 1 amine (or outer) side, 2 acyl side, 3 side chain; on linkers, the order of the positions; unused ones are H or OH. Bridge positions count the residues as written; N and C are the ends. Square brackets hold non-standard residues; d marks the D form. * marks the point of attachment. C20 diacid = O=C(O)CCCCCCCCCCCCCCCCCCC(=O)*; γGlu = O=C(O)[C@H](CCC(=O)[*:2])N[*:1]; Hyp = O=C(O)[C@@H]1C[C@@H](O)CN1; NMeI = CC[C@H](C)[C@H](NC)C(=O)O; Aad = N[C@@H](CCCC(=O)O)C(=O)O; Sar = CNCC(=O)O

What was measured:
[1] = molecular target: recombinant human amylin 3 receptor (hAMYR3) (human), P30988; test: cell-based or functional assay
Chain of recombinant human amylin 3 receptor (hAMYR3) (human), P30988 (P30988 25-474, chain 1 of 2): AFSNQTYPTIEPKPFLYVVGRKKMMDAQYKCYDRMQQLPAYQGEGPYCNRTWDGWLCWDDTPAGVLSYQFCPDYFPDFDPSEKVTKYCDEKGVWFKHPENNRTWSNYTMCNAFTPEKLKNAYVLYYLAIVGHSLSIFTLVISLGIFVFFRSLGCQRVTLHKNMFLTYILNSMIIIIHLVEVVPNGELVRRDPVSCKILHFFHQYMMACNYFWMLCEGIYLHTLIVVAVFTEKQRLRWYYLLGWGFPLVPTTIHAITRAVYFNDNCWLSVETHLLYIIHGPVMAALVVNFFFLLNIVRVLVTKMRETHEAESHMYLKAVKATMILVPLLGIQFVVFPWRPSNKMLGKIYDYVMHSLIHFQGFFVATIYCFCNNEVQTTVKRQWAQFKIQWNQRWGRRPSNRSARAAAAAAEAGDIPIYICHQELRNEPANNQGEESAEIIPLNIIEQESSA
Chain of recombinant human amylin 3 receptor (hAMYR3) (human), P30988 (O60896 24-148, chain 2 of 2, further chain): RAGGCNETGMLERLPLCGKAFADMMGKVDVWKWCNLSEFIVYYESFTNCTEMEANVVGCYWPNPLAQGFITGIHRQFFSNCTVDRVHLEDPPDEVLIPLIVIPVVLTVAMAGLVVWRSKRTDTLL

[2] = molecular target: recombinant human calcitonin receptor (hCT-R) (human), P30988; test: cell-based or functional assay
Chain of recombinant human calcitonin receptor (hCT-R) (human), P30988 (P30988 25-474): as the sequence (P30988 25-474, chain 1 of 2) above

| Binder | hAMYR3 EC50 [nM] (cAMP formation, 1321N1 cells expressing hAMYR3) [1] | hCT-R EC50 [nM] (cAMP formation, 1321N1 cells expressing hCT-R) [2] |
| --- | --- | --- |
| {C20 diacid-γGlu}-RDGTATKATQRLA[Aad]FLQRSSF[Sar]A[NMeI]LSSTEVGSNT[Hyp]-NH2 (lactam 2-7; SMILES CC[C@H](C)[C@@H](C(=O)N[C@@H](CC(C)C)C(=O)N[C@@H](CO)C(=O)N[C@@H](CO)C(=O)N[C@H](C(=O)N[C@@H](CCC(=O)O)C(=O)N[C@H](C(=O)NCC(=O)N[C@@H](CO)C(=O)N[C@@H](CC(N)=O)C(=O)N[C@H](C(=O)N1C[C@H](O)C[C@H]1C(N)=O)[C@@H](C)O)C(C)C)[C@@H](C)O)N(C)C(=O)[C@H](C)NC(=O)CN(C)C(=O)[C@H](Cc1ccccc1)NC(=O)[C@H](CO)NC(=O)[C@H](CO)NC(=O)[C@H](CCCNC(=N)N)NC(=O)[C@H](CCC(N)=O)NC(=O)[C@H](CC(C)C)NC(=O)[C@H](Cc1ccccc1)NC(=O)[C@H](CCCC(=O)O)NC(=O)[C@H](C)NC(=O)[C@H](CC(C)C)NC(=O)[C@H](CCCNC(=N)N)NC(=O)[C@H](CCC(N)=O)NC(=O)[C@@H](NC(=O)[C@H](C)NC(=O)[C@@H]1CCCCNC(=O)C[C@H](NC(=O)[C@H](CCCNC(=N)N)NC(=O)CC[C@H](NC(=O)CCCCCCCCCCCCCCCCCCC(=O)O)C(=O)O)C(=O)NCC(=O)N[C@@H]([C@@H](C)O)C(=O)N[C@@H](C)C(=O)N[C@@H]([C@@H](C)O)C(=O)N1)[C@@H](C)O) [Compound 40] | 0.008 | 0.028 |
| {C20 diacid-γGlu}-KDGTATKATQRLA[Aad]FLQRSSF[Sar]A[NMeI]LSSTEVGSNT[Hyp]-NH2 (lactam 2-7; SMILES CC[C@H](C)[C@@H](C(=O)N[C@@H](CC(C)C)C(=O)N[C@@H](CO)C(=O)N[C@@H](CO)C(=O)N[C@H](C(=O)N[C@@H](CCC(=O)O)C(=O)N[C@H](C(=O)NCC(=O)N[C@@H](CO)C(=O)N[C@@H](CC(N)=O)C(=O)N[C@H](C(=O)N1C[C@H](O)C[C@H]1C(N)=O)[C@@H](C)O)C(C)C)[C@@H](C)O)N(C)C(=O)[C@H](C)NC(=O)CN(C)C(=O)[C@H](Cc1ccccc1)NC(=O)[C@H](CO)NC(=O)[C@H](CO)NC(=O)[C@H](CCCNC(=N)N)NC(=O)[C@H](CCC(N)=O)NC(=O)[C@H](CC(C)C)NC(=O)[C@H](Cc1ccccc1)NC(=O)[C@H](CCCC(=O)O)NC(=O)[C@H](C)NC(=O)[C@H](CC(C)C)NC(=O)[C@H](CCCNC(=N)N)NC(=O)[C@H](CCC(N)=O)NC(=O)[C@@H](NC(=O)[C@H](C)NC(=O)[C@@H]1CCCCNC(=O)C[C@H](NC(=O)[C@H](CCCCN)NC(=O)CC[C@H](NC(=O)CCCCCCCCCCCCCCCCCCC(=O)O)C(=O)O)C(=O)NCC(=O)N[C@@H]([C@@H](C)O)C(=O)N[C@@H](C)C(=O)N[C@@H]([C@@H](C)O)C(=O)N1)[C@@H](C)O) [Compound 39] | 0.024 | 0.094 |
| {C20 diacid-γGlu}-RDGTATKATERLA[Aad]FLQRTTF[Sar]A[NMeI]LSSTEVGSNT[Hyp]-NH2 (lactam 2-7; SMILES CC[C@H](C)[C@@H](C(=O)N[C@@H](CC(C)C)C(=O)N[C@@H](CO)C(=O)N[C@@H](CO)C(=O)N[C@H](C(=O)N[C@@H](CCC(=O)O)C(=O)N[C@H](C(=O)NCC(=O)N[C@@H](CO)C(=O)N[C@@H](CC(N)=O)C(=O)N[C@H](C(=O)N1C[C@H](O)C[C@H]1C(N)=O)[C@@H](C)O)C(C)C)[C@@H](C)O)N(C)C(=O)[C@H](C)NC(=O)CN(C)C(=O)[C@H](Cc1ccccc1)NC(=O)[C@@H](NC(=O)[C@@H](NC(=O)[C@H](CCCNC(=N)N)NC(=O)[C@H](CCC(N)=O)NC(=O)[C@H](CC(C)C)NC(=O)[C@H](Cc1ccccc1)NC(=O)[C@H](CCCC(=O)O)NC(=O)[C@H](C)NC(=O)[C@H](CC(C)C)NC(=O)[C@H](CCCNC(=N)N)NC(=O)[C@H](CCC(=O)O)NC(=O)[C@@H](NC(=O)[C@H](C)NC(=O)[C@@H]1CCCCNC(=O)C[C@H](NC(=O)[C@H](CCCNC(=N)N)NC(=O)CC[C@H](NC(=O)CCCCCCCCCCCCCCCCCCC(=O)O)C(=O)O)C(=O)NCC(=O)N[C@@H]([C@@H](C)O)C(=O)N[C@@H](C)C(=O)N[C@@H]([C@@H](C)O)C(=O)N1)[C@@H](C)O)[C@@H](C)O)[C@@H](C)O) [Compound 38] | 0.06 | 0.114 |
| {C20 diacid-γGlu}-RDGTATKATQRLADFLQRSSF[Sar]A[NMeI]LSSTEVGSNT[Hyp]-NH2 (lactam 2-7; SMILES CC[C@H](C)[C@@H](C(=O)N[C@@H](CC(C)C)C(=O)N[C@@H](CO)C(=O)N[C@@H](CO)C(=O)N[C@H](C(=O)N[C@@H](CCC(=O)O)C(=O)N[C@H](C(=O)NCC(=O)N[C@@H](CO)C(=O)N[C@@H](CC(N)=O)C(=O)N[C@H](C(=O)N1C[C@H](O)C[C@H]1C(N)=O)[C@@H](C)O)C(C)C)[C@@H](C)O)N(C)C(=O)[C@H](C)NC(=O)CN(C)C(=O)[C@H](Cc1ccccc1)NC(=O)[C@H](CO)NC(=O)[C@H](CO)NC(=O)[C@H](CCCNC(=N)N)NC(=O)[C@H](CCC(N)=O)NC(=O)[C@H](CC(C)C)NC(=O)[C@H](Cc1ccccc1)NC(=O)[C@H](CC(=O)O)NC(=O)[C@H](C)NC(=O)[C@H](CC(C)C)NC(=O)[C@H](CCCNC(=N)N)NC(=O)[C@H](CCC(N)=O)NC(=O)[C@@H](NC(=O)[C@H](C)NC(=O)[C@@H]1CCCCNC(=O)C[C@H](NC(=O)[C@H](CCCNC(=N)N)NC(=O)CC[C@H](NC(=O)CCCCCCCCCCCCCCCCCCC(=O)O)C(=O)O)C(=O)NCC(=O)N[C@@H]([C@@H](C)O)C(=O)N[C@@H](C)C(=O)N[C@@H]([C@@H](C)O)C(=O)N1)[C@@H](C)O) [Compound 41] | 0.024 | 0.095 |
| {C20 diacid-γGlu}-RDGTATKATQRLADFLQRSSF[Sar]A[NMeI]LSSTETGSNT[Hyp]-NH2 (lactam 2-7; SMILES CC[C@H](C)[C@@H](C(=O)N[C@@H](CC(C)C)C(=O)N[C@@H](CO)C(=O)N[C@@H](CO)C(=O)N[C@H](C(=O)N[C@@H](CCC(=O)O)C(=O)N[C@H](C(=O)NCC(=O)N[C@@H](CO)C(=O)N[C@@H](CC(N)=O)C(=O)N[C@H](C(=O)N1C[C@H](O)C[C@H]1C(N)=O)[C@@H](C)O)[C@@H](C)O)[C@@H](C)O)N(C)C(=O)[C@H](C)NC(=O)CN(C)C(=O)[C@H](Cc1ccccc1)NC(=O)[C@H](CO)NC(=O)[C@H](CO)NC(=O)[C@H](CCCNC(=N)N)NC(=O)[C@H](CCC(N)=O)NC(=O)[C@H](CC(C)C)NC(=O)[C@H](Cc1ccccc1)NC(=O)[C@H](CC(=O)O)NC(=O)[C@H](C)NC(=O)[C@H](CC(C)C)NC(=O)[C@H](CCCNC(=N)N)NC(=O)[C@H](CCC(N)=O)NC(=O)[C@@H](NC(=O)[C@H](C)NC(=O)[C@@H]1CCCCNC(=O)C[C@H](NC(=O)[C@H](CCCNC(=N)N)NC(=O)CC[C@H](NC(=O)CCCCCCCCCCCCCCCCCCC(=O)O)C(=O)O)C(=O)NCC(=O)N[C@@H]([C@@H](C)O)C(=O)N[C@@H](C)C(=O)N[C@@H]([C@@H](C)O)C(=O)N1)[C@@H](C)O) [Compound 42] | 0.003 | 0.006 |

Other lines, results leading:

| hAMYR3 EC50 [nM] (cAMP formation, 1321N1 cells expressing hAMYR3) [1] | hCT-R EC50 [nM] (cAMP formation, 1321N1 cells expressing hCT-R) [2] | Binder |
| --- | --- | --- |
| 0.007 | 0.021 | {C20 diacid-γGlu}-KDGTATKATQRLANFLQRSSF[Sar]A[NMeI]LSSTEVGSNT[Hyp]-NH2 (lactam 2-7; SMILES CC[C@H](C)[C@@H](C(=O)N[C@@H](CC(C)C)C(=O)N[C@@H](CO)C(=O)N[C@@H](CO)C(=O)N[C@H](C(=O)N[C@@H](CCC(=O)O)C(=O)N[C@H](C(=O)NCC(=O)N[C@@H](CO)C(=O)N[C@@H](CC(N)=O)C(=O)N[C@H](C(=O)N1C[C@H](O)C[C@H]1C(N)=O)[C@@H](C)O)C(C)C)[C@@H](C)O)N(C)C(=O)[C@H](C)NC(=O)CN(C)C(=O)[C@H](Cc1ccccc1)NC(=O)[C@H](CO)NC(=O)[C@H](CO)NC(=O)[C@H](CCCNC(=N)N)NC(=O)[C@H](CCC(N)=O)NC(=O)[C@H](CC(C)C)NC(=O)[C@H](Cc1ccccc1)NC(=O)[C@H](CC(N)=O)NC(=O)[C@H](C)NC(=O)[C@H](CC(C)C)NC(=O)[C@H](CCCNC(=N)N)NC(=O)[C@H](CCC(N)=O)NC(=O)[C@@H](NC(=O)[C@H](C)NC(=O)[C@@H]1CCCCNC(=O)C[C@H](NC(=O)[C@H](CCCCN)NC(=O)CC[C@H](NC(=O)CCCCCCCCCCCCCCCCCCC(=O)O)C(=O)O)C(=O)NCC(=O)N[C@@H]([C@@H](C)O)C(=O)N[C@@H](C)C(=O)N[C@@H]([C@@H](C)O)C(=O)N1)[C@@H](C)O) [Compound 43] |
| 0.009 | 0.02 | {C20 diacid-γGlu}-KDGTATKATQRLANFLQRSSF[Sar]A[NMeI]LSSTETGSNT[Hyp]-NH2 (lactam 2-7; SMILES CC[C@H](C)[C@@H](C(=O)N[C@@H](CC(C)C)C(=O)N[C@@H](CO)C(=O)N[C@@H](CO)C(=O)N[C@H](C(=O)N[C@@H](CCC(=O)O)C(=O)N[C@H](C(=O)NCC(=O)N[C@@H](CO)C(=O)N[C@@H](CC(N)=O)C(=O)N[C@H](C(=O)N1C[C@H](O)C[C@H]1C(N)=O)[C@@H](C)O)[C@@H](C)O)[C@@H](C)O)N(C)C(=O)[C@H](C)NC(=O)CN(C)C(=O)[C@H](Cc1ccccc1)NC(=O)[C@H](CO)NC(=O)[C@H](CO)NC(=O)[C@H](CCCNC(=N)N)NC(=O)[C@H](CCC(N)=O)NC(=O)[C@H](CC(C)C)NC(=O)[C@H](Cc1ccccc1)NC(=O)[C@H](CC(N)=O)NC(=O)[C@H](C)NC(=O)[C@H](CC(C)C)NC(=O)[C@H](CCCNC(=N)N)NC(=O)[C@H](CCC(N)=O)NC(=O)[C@@H](NC(=O)[C@H](C)NC(=O)[C@@H]1CCCCNC(=O)C[C@H](NC(=O)[C@H](CCCCN)NC(=O)CC[C@H](NC(=O)CCCCCCCCCCCCCCCCCCC(=O)O)C(=O)O)C(=O)NCC(=O)N[C@@H]([C@@H](C)O)C(=O)N[C@@H](C)C(=O)N[C@@H]([C@@H](C)O)C(=O)N1)[C@@H](C)O) [Compound 44] |
